# According to article PMC3811051 (Nature methods, 2013):
# B1: LanYFP, yellow fluorescent protein from Branchiostoma lanceolatum (natural protein, UniProt B1PNC0 1-219, looked up)
# chain: MSLPATHELHIFGSFNGVDFDMVGRGTGNPNDGYEELNLKSTKGALQFSPWILVPQIGYGFHQYLPFPDGMSPFQAAMKDGSGYQVHRTMQFEDGASLTSNYRYTYEGSHIKGEFQVIGTGFPADGPVMTNSLTAADWCVTKMLYPNDKTIISTFDWTYTTGSGKRYQSTVRTNYTFAKPMAANILKNQPMFVFRKTELKHSKTELNFKEWQKAFTDVM
# Biological target: the molecule itself
# Assay: SEC
protein,measurement,value
B1,stoichiometry N,4
